Data reported in US20030229006A1, “Amphiphilic oligomers” (priority 1993, published 2003).

What was measured:
[1] = test system: Pepsin (Gastric); details: pH 1.3
[2] = pH 1.3
[3] = test system: Chymotrypsin; details: pH 6
[4] = test system: Pancreatin; details: pH 7.5
[5] = Serum insulin after oral microemulsion insulin formulation; format: in vivo, dogs; details: 1.0 mg/kg orally
Method: (§1) FIG. 6 is a graph of insulin and blood glucose levels as a function of time, after dosing of canine subjects with a microemulsion insulin formulation representative of the present invention. The respective curves shown in the graph include native Zinc insulin; glucose ( ), hex-insulin; glucose (▪); native Zinc insulin; insulin (Δ); and hex-insulin; insulin (Δ).
(§2) Glucose data were normalized to the baseline glucose levels (0 minutes). Dogs were dosed orally with one of two emulsion formulations (native Zinc insulin or Hex-insulin mixture). The dose was adjusted to 1.0 mg/kg. Samples were collected at 30 minute intervals. The data were corrected for Hex-insulin reactivity in the BMI ELISA and Pharmacia RIA tests.

[6] = test system: albino mice; assay: Blood glucose after oral glucose challenge in fasted mice (Example IV); format: in vivo
Method: Comparative studies using bovine insulin were conducted on polymer-insulin conjugates and on native insulin to determine their relative stability and activity in animal models. In the animal studies, the efficacy of the polymer-insulin in lowering the blood level was compared to that of native insulin. Female and male albino mice averaging 25 g in weight were fasted overnight and used in groups of five for each treatment conducted in several phases over a period of two days. […] Conjugate 1) Group 3, 100 μg/kg, orally); or Conjugate 1 (Group 4, 100 μg/kg, subcutaneously) at time 0. […] Animals were fasted overnight before treatment and for the duration of the study. All test materials were prepared in phosphate buffered saline, pH 7.4. […] At the scheduled sample time blood was collected from the tail vein and immediately analyzed for glucose content using a One Touch Digital Glucose Meter (Life Scan).

[7] = test system: pancreatomized dogs; assay: Blood glucose after oral microemulsion insulin formulation; format: in vivo; details: 1.0 mg/kg orally, emulsion formulation (native Zinc insulin or Hex-insulin mixture)
Method: as §1, §2

[8] = Closed loop assay, serum insulin by ELISA; format: in vivo, Sprague-Dawley rats; details: 10 and 30 milligrams of insulin per kilogram
Method: FIG. 3 is a graph of ELISA assay results for native insulin in the NRS pool of various Sprague-Dawley rats, showing insulin concentration as a function of time, prior to and after dosing with insulin, at respective doses of 10 milligrams of insulin per kilogram of body weight, and at 30 milligrams of insulin per kilogram of body weight. Two rats were dosed at 10 milligrams insulin per kilogram of body weight (Rats C and I) and two rats were dosed at 30 milligrams insulin per kilogram of body weight (Rats K and L).
FIG. 4 is a graph of ELISA assay results for insulin in the NRS pool of various Sprague-Dawley rats, showing insulin concentration as a function of time, prior to and after dosing with insulin, at respective doses of 10 milligrams of insulin per kilogram of body weight, and at 30 milligrams of insulin per kilogram of body weight, wherein the insulin is administered as a conjugate, insulin-hexyl-PEG7-OMe.

Row | Substance | Stability, Pepsin (Gastric) 1.5 units/mL [1] [min] | Stability, Acid [2] [h] | Stability, Chymotrypsin [3] [min] | Stability, Pancreatin 6 units/mL [4] [min] | Time of peak insulin immunoreactivity in the serum after dosing ([5]; emulsion formulation (native Zinc insulin or Hex-insulin mixture)) [min] | Serum insulin return to baseline ([5]; emulsion formulation, in all cases) [min] | Duration of hypoglycemic effect ([6]; 100 μg/kg subcutaneously) [h] | Blood glucose levels ([6]; 100 μg/kg subcutaneously, 30 minute time point, control = Group 5, untreated) | Blood glucose levels lowered to a maximum of ([6]; 1.5 mg/kg orally by gavage) | Time of maximum response after treatment ([6]; 1.5 mg/kg orally by gavage) [min] | Glucose levels after four hours ([6]; Group 2, 1.5 mg/kg orally) | Glucose return to baseline by [7] [min] | Time of maximal glucose depression [7] [min] | Insulin concentration over the timecourse [8]
1 | Insulin (Na): native (bovine) insulin, sodium form, comparator in stability studies | 9 | 153 | 13 | 77 |  |  |  |  |  |  |  |  |  | 
2 | native insulin: unconjugated insulin comparator: bovine insulin in Example IV, native Zinc insulin emulsion in Example XIX |  |  |  |  | ≤ 30 | 120 to 240 | 3.5 | approximately 30 % of control | 60 % of control | 30 | remained above control | 360 to 480 | 9 to 180 | flat throughout the timecourse
